Patent publication US8361473B2, “Antibodies and their uses for diagnosis and treatment of cytomegalovirus infection and associated diseases” (priority 2007, dated 2013)

Tests used:
[1] = test system: HLA-A2/pp65 complex (pp65 495-503 peptide); assay: ELISA with phage clones and purified Fab Abs, specific complex; assay type: binding, human; conditions: soluble purified Fab
Procedure: ELISA with phage clones and purified Fab Abs—The binding specificities of individual phage clones and soluble Fab were determined by ELISA using biotinylated scMHC-peptide complexes. ELISA plates (Falcon) were coated overnight with BSA-biotin (1 μg/well). After having been washed, the plates were incubated (1 hour, RT) with streptavidin (1 μg/well), washed extensively, and further incubated (1 hour, RT) with 0.5 μg of MHC/peptide complexes. The plates were blocked for 30 minutes at RT with PBS/2% skim milk and subsequently were incubated for 1 hour at RT with phage clones (˜10^9 phages/well) or various concentrations of soluble purified Fab. […]
A large human Fab library containing 3.7×10^10 different Fab clones was used for the selection on biotinylatd HLA-A2/pp65 complexes (De Haard H J., et al., 1999). […] Specificity of the selected phage antibodies against the complex was analyzed by a differential ELISA assay in which binding was tested against specific (pp65 495-503 peptide; SEQ ID NO:3) and non specific (gp100 280-288 peptide; SEQ ID NO:4) biotinylated HLA-A2/peptide complexes. […]
To determine the correct folding of the bound complexes and their stability during the binding assays, the ability of the complexes to react with the conformation-specific mAb, w6/32, that recognizes HLA complexes only when folded correctly and when containing peptide was monitored.

[2] = biological target: T1, pp65-loaded RMA-S-HHD cells (UniProt P06725+P61769); assay: Flow cytometry on peptide-loaded RMA-S-HHD cells; assay type: cell-based, murine; conditions: Fab, control: EBV derived peptide
T1 construct: expressed in transfected cells; host or cells: murine TAP2-deficient RMA-S cells (RMA-S-HHD)
Procedure: Flow cytometry—The B cell line RMAS-HHD, which is transfected with a single-chain β2m-HLA-A2 gene, the EBV-transformed HLA-A2^+ JY cells, and the HLA-A2− B cell line APD-70 were used to determine the reactivity of the recombinant Fab Abs with cell surface-expressed HLA-A2/peptide complexes. Peptide pulsing was performed as indicated: 10^6 cells were washed twice with serum-free RPMI and incubated overnight at 26° C. or 37° C., respectively, in medium containing 1-50 μM of the peptide. The RMAS-HHD cells were subsequently incubated at 37° C. for 2-3 hours to stabilize cell surface expression of MHC-peptide complexes.
Cells were incubated for 60 minutes at 4° C. with recombinant Fab Abs (10 μg/ml) in 100 μl PBS. After one wash, the cells were incubated with 1 μg anti-human Fab (Jackson ImmunoResearch) for another 60 minutes at 4° C. After three washes, the cells were resuspended in ice-cold PBS. The cells were analyzed by a FACStar flow cytometer (BD Biosciences, San Jose, Calif.).
The pp65495-503 peptide and control peptides were loaded on RMA-S-HHD cells and the ability of the selected Fab Abs to bind to peptide-loaded cells was monitored by flow cytometry.

B1: F5: human recombinant TCR-like Fab clone specific for HLA-A2/pp65 495-503; heavy chain SEQ ID NO:20, light chain SEQ ID NO:22 (antibody)
heavy: QVQLQESGPGLVKPSETLSLTCTVSGGSISSSNYYWGWIRQPPGKGLEWIGAIYYSGSTYYNPSLKSRVAISVDTSKNQFSLKLSSVTAADTAVYYCARRIGVAGQWYFDLWGRGTLVTVSSASTKGPSVFPLAPSSKSTSGGTAALGCLVKDYFPEPVTVSWNSGALTSGVHTFPAVLQSSGLYSLSSVVTVPSSSLGTQTYICNVNHKPSNTKVDKKVEPKSC
light: LNFMLTQPHSVSGSPGKTVTISCTRSTGSITSNYVHWYQQRPGSSPTTVICEDNERPSGVPDRFSGSIDISSNSASLTISGLKTEDEADYYCQSYDDSNHISVFGTGTKVTVLGQPKANPCLISDFYPGAVTVAWKADGSPVKAGVETTKPSKQSNNKYAASSYLSLTPEQWKSHRSYSCQVTHEGSTVEKTVAPAECS
modifications: F5 Fab heavy chain polypeptide sequence; F5 Fab light chain polypeptide sequence
binding to the specific HLA-A2/pp65 complex [1]: Specificity towards HLA-A2/pp65 complex | reactivity with peptide-loaded RMA-S-HHD cells [2]: reacted only with pp65-loaded RMA-S-HHD cells
